What all share (assay): SPR
In general terms: SPR reads the build-up and loss of mass on a sensor chip optically.

Experiment [1] deals with human uracil DNA glycosylase (human UDG) (human) (UniProt P13051).
Experiment [2] addresses Mycobacterium tuberculosis uracil DNA glycosylase (TBUDG) (Mycobacterium tuberculosis) (UniProt P9WFQ9).
Experiment [3] addresses Epstein-Barr virus (human herpesvirus 4) uracil DNA glycosylase (EBVUDG) (Epstein-Barr virus (EBV; human herpesvirus 4)) (UniProt P12888).

The values below come from article PMC4872100.

The Kd is a measure of binding affinity in units of concentration. A low value points to higher affinity. In general, koff refers to the rate constant with which the complex falls apart. A word on the kon: it is a measure of how fast the partners come together. A lower kon goes with slow association.

In experiment [1], SAUGI E24AQ52R (natural protein) came in with a dissociation constant Kd of 3.3 nM, a koff of 0.00529 s⁻¹ and an on-rate constant (kon) of 1.6e+06 M⁻¹ s⁻¹.
In experiment [2], “Staphylococcus aureus uracil-DNA glycosylase inhibitor SAUGI (natural protein)” registered a Kd of 198 nM; a ka1 (two-state model, step 1) of 4.32e+06 M⁻¹ s⁻¹; a ka2 (two-state model, step 2) of 20 M⁻¹ s⁻¹; a kd1 (two-state model, step 1) of 1.39 s⁻¹. In experiment [3], the dissociation constant Kd is 0.475 nM, the koff is 0.0012 s⁻¹ and the kon was 2.54e+06 M⁻¹ s⁻¹. In experiment [1], this substance came in with a Kd of 1.96 nM, a koff of 0.00361 s⁻¹ and an on-rate constant (kon) of 1.85e+06 M⁻¹ s⁻¹.
